Experimental data taken from patent publication US20060199761A1, “Insulin resistance improving agent” (Japan Science And Technology Agency, priority 2002, published 2006).

Experiments:
lipoatrophic mice [1] = experiment: Lipoatrophic mice (PPAR-γ+/− mice treated with HX531) with or without adiponectin, gAd or leptin; format: in vivo, mouse; settings: for insulin resistance (FIG. 8): mice without adipose tissue, administration at a physiological concentration; for Liver TG content / Serum FFA / Serum TG / Skeletal muscle TG content: HF diet; for hyperglycemia and hyperinsulinemia (insulin resistance index, FIG. 8): lipoatrophic mice, continuous systemic infusion
Procedure: (§1) The measurements of [^14C] CO2 production from [1-^14C] palmitic acid were performed using liver and muscle slices as described (Diabetes 47, 1841-1847 (1998)). Liver and muscle homogenates were prepared, and tissue triglyceride content was determined with an extract solution (CHCl3:CH3OH=2:1). The remainder of the liver and muscle was immediately frozen in liquid nitrogen and stored at −80° C. until measurement of the enzymatic activity of ACO. ACO activity in the light mitochondrial fraction of liver and muscle was measured by assay that was based on the H2O2 dependent oxidation of leuco-dichlorofluorescein (Diabetes 47, 1841-1847 (1998)).
Unless otherwise described herein, administration was performed through continuous systemic infusion (pump) in combination with a high-fat (HF) diet for the final twelve days of the six-week HX531 treatment.
FIGS. 9 and 10 show mRNAs of fatty-acid translocase (FAT)/CD36, ACO, UCP2, and PPAR-α in mouse skeletal muscle and in liver, respectively. […] HX531 was administered as a 0.1% food admixture. Mice were stimulated with or without 1 U/g body weight of insulin for two minutes. Lysates were subjected to immunoprecipitation (IP) and immunoblotting through use of the antibodies described in Mol. Cell. Biol. 16, […] (1996).

lipoatrophic mice [2] = experiment: as above; format: in vivo, mouse; settings: HX531 for four weeks
db/db mice [3] = experiment: Rosiglitazone treatment of db/db mice on high-fat diet (adiponectin expression, glucose tolerance test)
PPAR-γ+/− mice = experiment: Adiponectin infusion in PPAR-γ+/− mice on high-fat diet without HX531 (tissue TG, serum FFA/TG); format: in vivo, mouse; settings: HF diet, no HX531, Ad 50 μg/day continuous infusion 12 days
Procedure: as §1
While PPAR-γ^+/− mice were treated with HX531 for six weeks (+) or untreated (−), recombinant full-length adiponectin (Ad), gAd, or leptin (Lep) was administered to each PPAR-γ^+/− mouse at a predetermined dose (μg/day). Administration was performed through continuous systemic infusion in combination with the high-fat (HF) diet for the final twelve days of the six-week HX531 treatment (six weeks).

KKA^y mice [4] = experiment: Adiponectin administration to KKAy mice on high-fat diet; format: in vivo, mouse; settings: for ACO activity, liver / ACO activity, skeletal muscle / Fatty acid oxidation [14C] palmitate→CO2, liver / Fatty acid oxidation [14C] palmitate→CO2, skeletal muscle / Rectal temperature / Serum FFA / Serum TG / TG content, liver / TG content, skeletal muscle: high fat diet, two weeks
Procedure: as §1
The mice were fed an HC or HF diet.
The following values were determined through use of KKA^y mice: acyl-CoA oxidase (ACO) activity and fatty acid oxidation in the skeletal muscle and in the liver, tissue triglyceride content in the skeletal muscle and in the liver, and serum free fatty acid level and serum triglyceride level. Mice were fed with high fat diet, and full-length adiponectin (Ad) or adiponectin globular domain (gAd) was administered to each mice at a dose shown in Table 2 for two weeks.

db/db mice [5] = test system: db/db mice
Procedure: (§2) Adiponectin or leptin was administered to mice through intraperitoneal injection or continuous systemic infusion as described (Nature 401, 73-76 (1999)). An Alzet micro-osmotic pump (model 1002, Alza) was inserted subcutaneously in the back of each mouse. A daily dose (shown in Figures) of recombinant leptin (Sigma) or adiponectin was dissolved in a total volume of 0.1 mL of PBS, and the solution was delivered to mice through the pump for twelve days.
(§3) The areas of glucose and insulin curves were calculated by multiplying the cumulative mean height of the glucose values (1 mg/ml=1 cm) and insulin values (1 ng/ml=1 cm), respectively, by time (60 min=1 cm) (Am. J. Physiol. 240, E482-488 (1981)).
(§4) The mice were fed an HC or HF diet. In addition, Ad or gAd was administered, or none of these was administered, to the mice at a predetermined dose (μg/day).

KKA^y mice [6] = experiment: Adiponectin administration to KKAy mice on high-fat diet; format: in vivo, mouse; settings: adiponectin-administered KKAy mice
KK mice = experiment: Adiponectin administration to KK mice (serum leptin); format: in vivo, mouse
Procedure: as §2

[7] = PPAR-γ+/− mice, HX531 alone for 6 weeks
[8] = HX531 6 weeks + Ad 50 μg/day continuous infusion final 12 days
[9] = db/db mice, adiponectin replenishment
[10] = HX531 6 weeks + gAd 2.5 μg/day continuous infusion final 12 days
[11] = gAd at a low concentration, mRNA (FIG. 9)
[12] = normal C57 mice, high-fat diet, two weeks

Procedure for C57 mice: as §2, §3, §4

Molecule: leptin: recombinant leptin (Sigma)
- insulin resistance (FIG. 8) (lipoatrophic mice [1]): alleviate their insulin resistance, albeit partially

Molecule: CN1c2ccc([N+](=O)[O-])cc2N=C(c2ccc(C(=O)O)cc2)c2cc3c(cc21)C(C)(C)CCC3(C)C [HX531, reference compound]
- Liver TG content (lipoatrophic mice [1]; [7]): 19.36 ± 1.23 mg/g tissue
- Serum FFA (lipoatrophic mice [1]; [7]): 1.48 ± 0.25 mEq/L
- Serum TG (lipoatrophic mice [1]; [7]): 201.4 ± 25.3 mg/dL
- Skeletal muscle TG content (lipoatrophic mice [1]; [7]): 15.96 ± 1.47 mg/g tissue
- lowering of expression of lipoprotein lipase (LPL) in WAT (lipoatrophic mice [1]; PPAR-γ+/− mice, HX531 for three weeks): ≥ 90%
- visible WAT (lipoatrophic mice [2]): disappearance of visible WAT

Molecule: CN(CCOc1ccc(CC2SC(=O)NC2=O)cc1)c1ccccn1 (stereo not drawn) [Rosiglitazone]
- adipose tissue mass (db/db mice [3]): 2.84 ± 0.16 g
- body weight (db/db mice [3]): 47.9 ± 1.0 g

B1: Ad: recombinant full-length mouse adiponectin, histidine-tagged fusion protein expressed in bacteria (protein, UniProt Q15848 19-244, looked up)
Adiponectin: ETTTQGPGVLLPLPKGACTGWMAGIPGHPGHNGAPGRDGRDGTPGEKGEKGDPGLIGPKGDIGETGVPGAEGPRGFPGIQGRKGEPGEGAYVYRSAFSVGLETYVTIPNMPIRFTKIFYNQQNHYDGSTGKFHCNIPGLYYFAYHITVYMKDVKVSLFKKDKAMLFTYDQYQENNVDQASGSVLLHLEVGDQVWLQVYGEGERNGLYADNDNDSTFTGFLLYHDTN
- Liver TG content (PPAR-γ+/− mice): 6.45 ± 0.26 mg/g tissue
- Serum FFA (PPAR-γ+/− mice): 0.35 ± 0.02 mEq/L
- Serum TG (PPAR-γ+/− mice): 60.5 ± 6.0 mg/dL
- Skeletal muscle TG content (PPAR-γ+/− mice): 5.47 ± 0.32 mg/g tissue
- Liver TG content (lipoatrophic mice [1]; [8]): 16.19 ± 0.72 mg/g tissue
- Serum FFA (lipoatrophic mice [1]; [8]): 0.61 ± 0.13 mEq/L
- Serum TG (lipoatrophic mice [1]; [8]): 106.6 ± 18.1 mg/dL
- Skeletal muscle TG content (lipoatrophic mice [1]; [8]): 7.74 ± 0.65 mg/g tissue
- insulin-induced tyrosine phosphorylation of insulin receptor and insulin-receptor substrate 1 and insulin-stimulated phosphorylation of Akt kinase in skeletal muscle (lipoatrophic mice [1]; adiponectin-administered lipoatrophic mice (FIG. 11)): increase
- hyperglycemia and hyperinsulinemia (insulin resistance index, FIG. 8) (lipoatrophic mice [1]): significantly ameliorated
- insulin resistance (FIG. 8) (lipoatrophic mice [1]): not sufficient to completely ameliorate insulin resistance
- ACO activity, liver (KKA^y mice [4]; Ad 50 μg/day): 3.04 ± 0.85 nmol/mg/min
- ACO activity, skeletal muscle (KKA^y mice [4]; Ad 50 μg/day): 0.37 ± 0.04 nmol/mg/min
- Fatty acid oxidation [14C] palmitate→CO2, liver (KKA^y mice [4]; Ad 50 μg/day): 2.92 ± 0.29 nmol/g/h
- Fatty acid oxidation [14C] palmitate→CO2, skeletal muscle (KKA^y mice [4]; Ad 50 μg/day): 3.95 ± 0.58 nmol/g/h
- Rectal temperature (KKA^y mice [4]; Ad 50 μg/day): 37.3 ± 0.2 °C
- Serum FFA (KKA^y mice [4]; Ad 50 μg/day): 0.67 ± 0.09 mEq/L
- Serum TG (KKA^y mice [4]; Ad 50 μg/day): 101.3 ± 19.7 mg/dL
- TG content, liver (KKA^y mice [4]; Ad 50 μg/day): 16.15 ± 0.83 mg/g tissue
- TG content, skeletal muscle (KKA^y mice [4]; Ad 50 μg/day): 8.75 ± 0.58 mg/g tissue
- serum adiponectin levels (C57 mice; mouse, in vivo): partially restored
- expression of leptin in WAT (C57 mice; wild-type mice): did not alter
- hyperglycemia and hyperinsulinemia induced by high-fat diet (GTT) (C57 mice; wild-type mice on high-fat diet, continuous systemic infusion of low doses): significantly ameliorated
- hyperinsulinemia (GTT, FIG. 14) (db/db mice [5]; [9]): significantly ameliorated
- leptin receptor deficiency-induced hyperglycemia (GTT, FIG. 13) (db/db mice [5]; [9]): significantly ameliorated
- serum adiponectin levels (db/db mice [5]; mouse, in vivo): partially restored
- expression of enzymes involved in β-oxidation and UCP2 in skeletal muscle (KKA^y mice [6]): increased

B2: gAd: C-terminal globular domain of adiponectin, recombinant histidine-tagged fusion protein (protein, listed as Homo sapiens)
chain: AFSVGLETYVTIPNMPIRFTKIFYNQQNHYDGSTGKFHCNIPGLYYFAYHITVYMKDVKVSLFKKDKAMLFTYDQYQENNVDQASGSVLLHLEVGDQVWLQVYGEGERNGLYADNDNDSTFTGFLL
modifications: CDS (1)..(735)
- Liver TG content (lipoatrophic mice [1]; [10]): 13.81 ± 0.91 mg/g tissue
- Serum FFA (lipoatrophic mice [1]; [10]): 0.43 ± 0.14 mEq/L
- Serum TG (lipoatrophic mice [1]; [10]): 100.3 ± 17.5 mg/dL
- Skeletal muscle TG content (lipoatrophic mice [1]; [10]): 3.88 ± 1.74 mg/g tissue
- expression of CD36, acyl-CoA oxidase (ACO) and uncoupling protein (UCP) 2 in skeletal muscle (lipoatrophic mice [1]; [11]): increased
- expression of PPAR-α in skeletal muscle (lipoatrophic mice [1]; [11]): increased
- expression of CD36 in the liver (lipoatrophic mice [1]; gAd at a low concentration, mRNA (FIG. 10)): decreased
- hyperglycemia and hyperinsulinemia (insulin resistance index, FIG. 8) (lipoatrophic mice [1]): much more potently than full-length adiponectin
- serum leptin levels (KKA^y mice [4]): 57.9 ± 5.7 ng/mL
- ACO activity, liver (KKA^y mice [4]; gAd 2.5 μg/day): 2.89 ± 0.35 nmol/mg/min
- ACO activity, skeletal muscle (KKA^y mice [4]; gAd 2.5 μg/day): 0.42 ± 0.04 nmol/mg/min
- Fatty acid oxidation [14C] palmitate→CO2, liver (KKA^y mice [4]; gAd 2.5 μg/day): 2.89 ± 0.21 nmol/g/h
- Fatty acid oxidation [14C] palmitate→CO2, skeletal muscle (KKA^y mice [4]; gAd 2.5 μg/day): 4.06 ± 0.44 nmol/g/h
- Rectal temperature (KKA^y mice [4]; gAd 2.5 μg/day): 37.7 ± 0.1 °C
- Serum FFA (KKA^y mice [4]; gAd 2.5 μg/day): 0.39 ± 0.04 mEq/L
- Serum TG (KKA^y mice [4]; gAd 2.5 μg/day): 96.4 ± 18.3 mg/dL
- TG content, liver (KKA^y mice [4]; gAd 2.5 μg/day): 16.04 ± 0.91 mg/g tissue
- TG content, skeletal muscle (KKA^y mice [4]; gAd 2.5 μg/day): 8.06 ± 0.61 mg/g tissue
- serum leptin levels (KK mice): 13.4 ± 2.7 ng/mL
- Food intake (C57 mice; C57 mice on high-fat diet): 6.28 ± 0.51 g/day
- WAT weight (C57 mice; [12]): 0.48 ± 0.04 g
- body weight (C57 mice; [12]): 20.6 ± 2.1 g
- serum leptin levels (C57 mice; wild-type mice): 10.4 ± 2.6 ng/mL
- serum leptin levels (db/db mice [5]; db/db mice): 145.2 ± 14.7 ng/mL
